The values below come from publication PMC10246013 (bioRxiv, 2023).

By stoichiometry N is commonly meant a count of units in the complex or per binding partner.

Data set [1] concerns the target dynein-dynactin-BicDR1 complex assembled with wtDyn (wtDDR) (human | pig | mouse) (UniProt Q14204). Put plainly: three-color TIRF comigration with processive complexes.
A further data set has as its target WT dynein-GFP (human) (UniProt Q14204). Put plainly: real-time TIRF imaging of the initiation of motility.
Data set [2] has as its target wild-type human dynein (wtDyn) (human) (UniProt Q14204). The data set is described as follows: single-molecule colocalization.
The data set “mass photometry” concerns the molecule itself. The data set is described as follows: mass photometry.

dynein-dynactin-BicDR1 complex assembled with wtDyn (wtDDR) (human | pig | mouse), sequence (Q14204 whole entry, looked up, one chain of several): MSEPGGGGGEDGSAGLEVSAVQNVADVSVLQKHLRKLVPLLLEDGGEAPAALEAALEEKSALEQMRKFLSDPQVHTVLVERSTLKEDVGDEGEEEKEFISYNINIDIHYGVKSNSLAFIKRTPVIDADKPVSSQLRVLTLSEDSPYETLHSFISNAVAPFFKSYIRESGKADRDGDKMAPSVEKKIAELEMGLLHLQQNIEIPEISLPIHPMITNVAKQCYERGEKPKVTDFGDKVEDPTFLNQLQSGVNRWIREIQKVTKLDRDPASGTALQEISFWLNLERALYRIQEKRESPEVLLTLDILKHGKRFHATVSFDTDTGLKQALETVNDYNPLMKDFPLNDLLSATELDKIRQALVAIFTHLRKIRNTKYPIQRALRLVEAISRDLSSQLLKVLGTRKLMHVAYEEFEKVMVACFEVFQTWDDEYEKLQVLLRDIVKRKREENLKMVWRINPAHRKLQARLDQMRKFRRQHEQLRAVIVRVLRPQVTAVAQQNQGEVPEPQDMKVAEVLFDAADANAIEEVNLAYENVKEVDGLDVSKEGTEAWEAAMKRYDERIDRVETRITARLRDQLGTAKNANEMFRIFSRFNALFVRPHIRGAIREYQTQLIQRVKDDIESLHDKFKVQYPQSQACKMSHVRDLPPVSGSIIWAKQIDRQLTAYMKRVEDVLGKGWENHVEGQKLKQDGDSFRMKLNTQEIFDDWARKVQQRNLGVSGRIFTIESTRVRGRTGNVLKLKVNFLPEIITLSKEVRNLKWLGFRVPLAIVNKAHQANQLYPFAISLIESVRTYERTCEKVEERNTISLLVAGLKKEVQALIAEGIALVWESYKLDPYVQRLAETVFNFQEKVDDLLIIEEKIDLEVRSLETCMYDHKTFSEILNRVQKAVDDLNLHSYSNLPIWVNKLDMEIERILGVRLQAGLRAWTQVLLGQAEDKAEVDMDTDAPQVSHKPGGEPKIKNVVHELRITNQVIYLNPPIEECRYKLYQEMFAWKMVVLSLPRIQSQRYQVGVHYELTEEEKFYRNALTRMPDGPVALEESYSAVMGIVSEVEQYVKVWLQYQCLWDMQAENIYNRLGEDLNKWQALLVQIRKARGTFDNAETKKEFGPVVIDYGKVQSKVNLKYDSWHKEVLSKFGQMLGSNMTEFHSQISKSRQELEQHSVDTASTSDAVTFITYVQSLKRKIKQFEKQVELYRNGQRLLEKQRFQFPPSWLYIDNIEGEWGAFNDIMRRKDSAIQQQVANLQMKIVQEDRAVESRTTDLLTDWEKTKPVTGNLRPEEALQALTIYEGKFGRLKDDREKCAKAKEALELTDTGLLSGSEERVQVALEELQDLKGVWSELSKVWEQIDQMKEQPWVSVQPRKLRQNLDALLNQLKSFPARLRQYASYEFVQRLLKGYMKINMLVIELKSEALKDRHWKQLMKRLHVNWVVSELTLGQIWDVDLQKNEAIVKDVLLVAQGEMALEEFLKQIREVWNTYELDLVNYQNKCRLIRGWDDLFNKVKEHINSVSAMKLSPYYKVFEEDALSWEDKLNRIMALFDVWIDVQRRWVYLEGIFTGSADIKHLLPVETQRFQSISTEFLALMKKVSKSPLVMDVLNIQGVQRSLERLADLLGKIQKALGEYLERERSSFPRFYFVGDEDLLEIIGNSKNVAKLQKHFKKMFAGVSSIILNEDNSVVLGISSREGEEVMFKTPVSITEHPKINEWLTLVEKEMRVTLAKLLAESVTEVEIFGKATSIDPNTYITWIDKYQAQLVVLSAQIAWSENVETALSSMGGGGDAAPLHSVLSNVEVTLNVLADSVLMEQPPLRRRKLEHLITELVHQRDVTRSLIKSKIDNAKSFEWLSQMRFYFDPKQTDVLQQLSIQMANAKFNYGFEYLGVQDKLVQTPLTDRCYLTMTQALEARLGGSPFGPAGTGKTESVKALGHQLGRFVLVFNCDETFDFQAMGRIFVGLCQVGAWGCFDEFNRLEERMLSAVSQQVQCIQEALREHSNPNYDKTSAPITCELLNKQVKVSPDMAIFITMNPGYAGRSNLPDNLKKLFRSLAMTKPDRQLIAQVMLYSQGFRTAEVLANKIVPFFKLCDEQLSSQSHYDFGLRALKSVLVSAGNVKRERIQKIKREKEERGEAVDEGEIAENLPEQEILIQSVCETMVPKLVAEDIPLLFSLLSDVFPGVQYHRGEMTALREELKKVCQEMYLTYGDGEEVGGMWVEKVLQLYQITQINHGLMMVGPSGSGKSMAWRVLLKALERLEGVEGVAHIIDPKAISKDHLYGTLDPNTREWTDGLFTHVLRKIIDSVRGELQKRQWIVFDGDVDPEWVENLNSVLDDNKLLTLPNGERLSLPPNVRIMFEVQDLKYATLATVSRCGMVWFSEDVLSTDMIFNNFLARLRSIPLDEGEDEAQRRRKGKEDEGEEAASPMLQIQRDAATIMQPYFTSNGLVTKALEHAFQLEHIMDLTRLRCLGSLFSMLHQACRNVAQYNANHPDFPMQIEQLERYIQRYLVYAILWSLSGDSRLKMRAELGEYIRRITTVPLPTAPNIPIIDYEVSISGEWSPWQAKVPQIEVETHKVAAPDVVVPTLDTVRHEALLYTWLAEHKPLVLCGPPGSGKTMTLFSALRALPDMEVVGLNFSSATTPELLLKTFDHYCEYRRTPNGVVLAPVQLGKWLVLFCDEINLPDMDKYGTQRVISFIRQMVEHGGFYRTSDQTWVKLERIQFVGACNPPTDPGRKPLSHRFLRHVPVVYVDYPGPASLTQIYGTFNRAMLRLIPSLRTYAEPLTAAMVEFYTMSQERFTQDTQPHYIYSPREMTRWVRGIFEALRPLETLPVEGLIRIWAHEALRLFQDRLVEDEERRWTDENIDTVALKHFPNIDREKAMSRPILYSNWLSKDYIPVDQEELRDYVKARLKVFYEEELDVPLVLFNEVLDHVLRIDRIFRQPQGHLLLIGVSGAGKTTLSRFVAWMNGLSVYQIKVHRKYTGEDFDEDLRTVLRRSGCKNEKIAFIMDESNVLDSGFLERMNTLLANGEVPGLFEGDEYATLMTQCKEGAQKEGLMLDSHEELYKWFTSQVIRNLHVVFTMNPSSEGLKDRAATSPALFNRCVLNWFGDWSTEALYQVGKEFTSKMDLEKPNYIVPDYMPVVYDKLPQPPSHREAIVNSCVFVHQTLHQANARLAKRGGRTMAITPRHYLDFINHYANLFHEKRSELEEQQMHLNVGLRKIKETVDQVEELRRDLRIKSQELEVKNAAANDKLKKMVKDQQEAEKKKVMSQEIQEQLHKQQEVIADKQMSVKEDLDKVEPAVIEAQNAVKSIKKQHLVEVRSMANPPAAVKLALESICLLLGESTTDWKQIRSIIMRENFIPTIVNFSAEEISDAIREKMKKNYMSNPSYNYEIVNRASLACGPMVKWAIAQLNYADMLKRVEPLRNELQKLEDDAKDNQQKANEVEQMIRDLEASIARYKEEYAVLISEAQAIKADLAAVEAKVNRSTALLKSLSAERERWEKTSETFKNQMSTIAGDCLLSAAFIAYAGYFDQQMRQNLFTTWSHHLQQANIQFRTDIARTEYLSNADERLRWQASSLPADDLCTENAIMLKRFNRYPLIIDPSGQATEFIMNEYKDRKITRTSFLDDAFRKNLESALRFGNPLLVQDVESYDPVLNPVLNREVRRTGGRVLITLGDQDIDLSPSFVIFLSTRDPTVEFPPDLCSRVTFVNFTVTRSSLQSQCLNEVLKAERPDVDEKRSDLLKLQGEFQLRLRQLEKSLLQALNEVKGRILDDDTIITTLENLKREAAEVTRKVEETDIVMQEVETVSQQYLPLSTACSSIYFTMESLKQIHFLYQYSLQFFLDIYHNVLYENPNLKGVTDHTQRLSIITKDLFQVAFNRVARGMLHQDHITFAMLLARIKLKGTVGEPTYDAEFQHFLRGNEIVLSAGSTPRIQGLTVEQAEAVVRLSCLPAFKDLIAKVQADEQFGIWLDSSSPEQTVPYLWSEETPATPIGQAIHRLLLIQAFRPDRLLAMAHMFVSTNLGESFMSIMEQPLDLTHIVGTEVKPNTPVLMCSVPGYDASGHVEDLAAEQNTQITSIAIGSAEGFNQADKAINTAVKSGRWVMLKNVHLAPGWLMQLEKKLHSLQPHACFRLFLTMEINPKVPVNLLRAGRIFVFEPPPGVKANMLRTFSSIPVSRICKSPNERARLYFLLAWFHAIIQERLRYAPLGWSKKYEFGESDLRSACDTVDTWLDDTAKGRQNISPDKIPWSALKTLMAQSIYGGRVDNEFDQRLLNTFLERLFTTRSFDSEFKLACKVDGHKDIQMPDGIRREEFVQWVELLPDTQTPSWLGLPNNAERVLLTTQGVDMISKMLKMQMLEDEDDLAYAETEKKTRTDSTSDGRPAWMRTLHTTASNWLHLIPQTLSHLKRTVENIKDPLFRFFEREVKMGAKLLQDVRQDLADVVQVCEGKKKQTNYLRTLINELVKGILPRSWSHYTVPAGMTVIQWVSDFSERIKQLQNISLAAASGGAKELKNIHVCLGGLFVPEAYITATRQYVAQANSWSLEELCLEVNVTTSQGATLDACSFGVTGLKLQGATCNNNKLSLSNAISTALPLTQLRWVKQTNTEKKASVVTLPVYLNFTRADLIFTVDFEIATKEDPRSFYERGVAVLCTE

The molecule “human Lis1 (full-length) (from UniProt P43034 1-410) (natural protein)” registered a percent of DDR complexes co-migrating with Lis1 in data set [1] of 70%.

For “pig brain dynactin (from UniProt A0A287B8J2 1-1281) (complex)”, in the data set with WT dynein-GFP (human), the percent of dynein-colocalized Nde1 immediately released, with Lis1 is 50%. The molecule also yielded a percent reduction of Nde1 colocalization to dynein in data set [2] of 37%.

B1: Nde1^1–190 (N-terminus of human Nde1) (domain or fragment)
chain: MEDSGKTFSSEEEEANYWKDLAMTYKQRAENTQEELREFQEGSREYEAELETQLQQIETRNRDLLSENNRLRMELETIKEKFEVQHSEGYRQISALEDDLAQTKAIKDQLQKYIRELEQANDDLERAKRATIMSLEDFEQRLNQAIERNAFLESELDEKENLLESVQRLKDEARDLRQELAVQQKQEKPR
modifications: LD555 dye in the size exclusion experiment
Consider B1, for which, in the data set “mass photometry”, the “stoichiometry N” value was 2.

B2: human Nde1 (full-length) (natural protein)
chain: MEDSGKTFSSEEEEANYWKDLAMTYKQRAENTQEELREFQEGSREYEAELETQLQQIETRNRDLLSENNRLRMELETIKEKFEVQHSEGYRQISALEDDLAQTKAIKDQLQKYIRELEQANDDLERAKRATIMSLEDFEQRLNQAIERNAFLESELDEKENLLESVQRLKDEARDLRQELAVQQKQEKPRTPMPSSVEAERTDTAVQATGSVPSTPIAHRGPSSSLNTPGSFRRGLDDSTGGTPLTPAARISALNIVGDLLRKVGALESKLASCRNLVYDQSPNRTGGPASGRSSKNRDGGERRPSSTSVPLGDKGLDTSCRWLSKSTTRSSSSC
modifications: LD655 or LD555 dye in the fluorescence assays
In the case of B2, the “stoichiometry N” value in the data set “mass photometry” was 2.
